Consider one substance from paper PMC4104756.

The assay concerns the target poly-(α,β)-DL-aspartic acid sodium salt. Put plainly: turbidity at 600 nm + light microscopy. The settings on record: scale: polyHis:polyAsp.

On to poly-L-histidine (peptide), for which the volume ratio polyHis:polyAsp at maximum turbidity worked out at 0.82.
